In paper PMC7559355:
Read-outs that look alike come from different tables or passages of the source.

How the values were obtained:
[1] = biological target: Radiolabeled FabA (3H-labeled FabA) (rabbit)
[2] = biological target: FabA (rabbit Fab with the anti-HSA nanobody ALB8 fused to the C-terminus of the heavy chain) (rabbit); assay: SPR; Fab captured by its His6 tag on an immobilised anti-His antibody (CM3 chip, about 15 RU); albumin 22.2-1800 nM injected; HBS-P+ (10 mM HEPES, 150 mM NaCl, pH 7.4, 0.05% P20), 25 °C; Langmuir 1:1 model
[3] = biological target: FabA (rabbit Fab with the anti-HSA nanobody ALB8 fused to the C-terminus of the heavy chain) (rabbit); assay: as above; remark: listed apart in the source
[4] = biological target: Radiolabeled FabA (3H-labeled FabA) (rabbit); assay: as above
[5] = biological target: Radiolabeled FabA (3H-labeled FabA) (rabbit); assay: SEC; radio-SEC of dosing formulations, 3H-FabA with equimolar albumin; 100 mM sodium phosphate pH 7.4, 10% ethanol
[6] = biological target: Radiolabeled FabA (3H-labeled FabA) (rabbit); assay: SEC; radio-SEC; 3H-FabA (0.57 or 5.7 µM) incubated in cynomolgus monkey vitreous humor at endogenous albumin (0.53 µM), 37 °C
[7] = biological target: Radiolabeled FabA (3H-labeled FabA) (rabbit); assay: SEC; radio-SEC; 3H-FabA (0.57 or 5.7 µM) incubated in cynomolgus monkey vitreous humor supplemented with 50, 100 and 250 µM CSA, 37 °C

In the case of “Human serum albumin (from UniProt P02768 25-609) (natural protein)”, the vitreous humor exposure (AUCinf) of 3H-FabA in rabbits after intravitreal injection of 0.05 mg co-formulated with 1 or 15 nmol HSA (104 and 230 h∙nmol/mL; FabB control with 1 nmol HSA 72.8) [1] is reported as 230 nmol·h/mL, the vitreous humor half-life (t1/2) of 3H-FabA in rabbits after intravitreal injection of 0.05 mg co-formulated with 1 or 15 nmol HSA (58.0 and 149 h; FabB control with 1 nmol HSA 52.1 h) [1] is reported as 149 h and the Kd [2] is reported as 55 nM. For the same substance, the Kd [3] was 99 nM and the Kd [4] was 97 nM.
“Cynomolgus serum albumin (from UniProt A2V9Z4 25-608) (natural protein)” gave a stoichiometry N [5] of 1, a stoichiometry N [6] of 1 and a stoichiometry N [7] of 2. The Kd [2] was 66 nM, the koff [2] was 0.0065 s⁻¹ and the kon [2] was 99000 M⁻¹ s⁻¹.
